Test results reported in patent publication US20080108569A1, “Compositions and Methods for Treating Diseases Associated With Phlpp” (The Regents of the University of California, priority 2005, published 2008).

What was measured:
Akt [1] = target: T1, Akt (Homo sapiens, UniProt P31749); test: dephosphorylation assay with immunoprecipitated full-length HA-PHLPP2 and pure Akt; assay type: biochemical
T1 construct: 6His; made in house; host or cells: Akt1: baculovirus-infected Sf21 cells; HA-PHLPP2: transfected 293T cells, immunoprecipitated with HA antibody
Description: A GST-fusion protein of PHLPP-1α-PP2C was expressed in BL21 (DE3) and purified using glutathione-Sepharose. The GST-PP2C proteins were eluted from the beads in PBS containing 10 mM glutathione and 1 mM DTT, and dialyzed against 50 mM Tris (pH 7.4) and 1 mM DTT. His-tagged Akt was expressed and purified from baculovirus-infected Sf21 cells. Briefly, Sf21 cells were maintained in SF-900 II media (Invitrogen) and infected with baculovirus encoding His-Akt for 3 days. To obtain maximally phosphorylated Akt as substrate, the infected cells were treated with 10% FBS and calyculin A (100 nM) for 15 minutes prior to lysis. The infected cells were lysed in PBS containing 1% Triton X-100 and 10 mM imidazole, and His-Akt proteins were purified using Ni-NTA beads (Qiagen). The dephosphorylation reactions were carried out in a reaction buffer containing 50 mM Tris (pH 7.4), 1 mM DTT and 5 mM MnCl2 at 30° C. for 0-30 minutes.
GST-PP2C was expressed in BL21 bacterial cells; phosphatase assays were performed using the purified GST-PP2C construct conjugated to glutathione-sepharose and pure Akt as a substrate as described above. The activity of full length HA-PHLPP2 was assessed by expressing and immunoprecipitating PHLPP2 from 293T or H157 cell lysates. Cells were lysed in Buffer 2 (20 mM HEPES, pH 7.4, 1% Triton X-100, 1 mM DTT, 200 mM benzamidine, […] leupeptin, and 1 mM PMSF). […]

Akt [2] = test: Akt phosphorylation in cells overexpressing HA-PHLPP2 (Western blot); assay type: cell-based
Description: (§1) ZR-75-1 cell lines were maintained in RPMI 1640 (Cellgro), and all other cell lines were maintained in DMEM (Celigro); both media were supplemented with 10% FBS and 1% penicillin/streptomycin. Cells were maintained at 37° C. in 5% CO2. Transient transfections and siRNA experiments were performed as previously described (6), except for ZR-75-1 cells, which were transfected using FuGENE reagent (Roche). For immunoblotting, transfected cells were lysed in Buffer 1 (50 mM Na2HPO4, pH 7.5, 1 mM sodium pyrophosphate, 20 mM NaF, 2 mM EDTA, 2 mM EGTA, 1% SDS, 1 mM DTT, 200 mM benzamidine, […] leupeptin, and 1 mM PMSF) and sonicated for 5 seconds. Lysates containing equal protein were analyzed on SDS-PAGE gels, and individual blots were probed using each antibody. Densitometric analysis was performed with the NIH Image analysis software (version 1.63).

Akt [3] = test: in vitro kinase assay of Akt immunoprecipitated from 293T cells overexpressing PHLPP2; assay type: cell-based
Description: H157 cells transfected with vector or HA-PHLPP were lysed in buffer A. The detergent-solubilized cell lysates were incubated with an anti-Akt monoclonal antibody (5G3) and Ultra-link protein A/G beads (Pierce) at 4° C. overnight. Beads were washed three times in buffer A and twice in buffer B (25 mM Tris, pH 7.4, 10 mM MgCl2 and 1 mM DTT). In vitro kinase assays were carried out by incubating immunoprecipitated Akt in buffer containing 25 mM Tris, pH 7.4, 10 mM MgCl2 and 1 mM DTT, 200 μM ATP, 6 μM Crosstide (Upstate Biotechnology) and ^32Pγ-ATP at 30° C. for 30 minutes. Each reaction was performed in duplicate. The reactions were spotted onto P81 filter paper (Whatman), and radioactivity incorporated into the peptide was measured using a scintillation counter.
Akt was immunoprecipitated from cell lysates using Akt agarose (Upstate Biotechnologies) and kinase reactions were performed using an Akt kinase assay kit (Cell Signaling) as described previously in Example 5.

Bt-474 cells = test: apoptosis assay, sub-2N DNA by flow cytometry; assay type: cell-based; conditions: from 2.0+0.2 without PHLPP2
Description: (§2) Apoptosis assays were performed as described previously (Brognard et al., 2001). Briefly, cells were transfected with different PHLPP expression constructs or siRNAs. In the case of gating for transfected cells, a GFP expression construct was co-transfected into the cells. Approximately 24 hours post-transfection, the cells were switched to low serum medium (DMEM plus 0.1% FBS) and allowed to grow for an additional 48 hours. For LY294002 (25 μM) treatment, the drug was added at the time when the cells were switched into the low serum medium. The cells were collected and stained with propidium iodide (25 μg/ml). Apoptotic cells were defined as sub-2N DNA containing cells. Quantification of apoptosis was obtained using flow cytometry analysis with a Becton Dickinson FACSort.
(§3) Apoptotic assays were performed as described above. To determine G1/S ratios, cells were co-transfected with GFP and HA-PHLPP2 and incubated under high serum (10% FBS) conditions for 48 hrs and cells were gated based on GFP expression as described above. For BrdU incorporation assays, cells were transfected with 100 nM siRNA (si-1) and incubated for 48 hrs prior to performing assay following manufacturers protocol (Oncogene Research Products).

H157 cells [4] = test: apoptosis assay, sub-2N DNA by flow cytometry; assay type: cell-based; conditions: serum deprivation; vector-transfected cells 3.1±0.1%
Description: as §2, §3

MDA-MB-231 cells = test: apoptosis assay, sub-2N DNA by flow cytometry; assay type: cell-based; conditions: from 2.9+0.9 without PHLPP2
Description: as §2, §3

293T cells = test: G1/S ratio by flow cytometry, PHLPP2 expression; assay type: cell-based; conditions: high serum (10% FBS), 48 hrs
Description: as §3

H157 cells [5] = test: G1/S ratio by flow cytometry, PHLPP2 expression; assay type: cell-based; conditions: high serum (10% FBS), 48 hrs
Description: as §3

PKC, p90RSK, or p70S6K = test: phosphorylation of the hydrophobic motif in other AGC family kinases on PHLPP2 expression (Western blot); assay type: cell-based; conditions: 293T and H157 cells
Description: as §1

MEK 1/2 or ERK 1/2 = test: MAPK signaling pathway on PHLPP2 expression (Western blot); assay type: cell-based; conditions: untreated cells
Description: as §1

T1 sequence (P31749 whole entry): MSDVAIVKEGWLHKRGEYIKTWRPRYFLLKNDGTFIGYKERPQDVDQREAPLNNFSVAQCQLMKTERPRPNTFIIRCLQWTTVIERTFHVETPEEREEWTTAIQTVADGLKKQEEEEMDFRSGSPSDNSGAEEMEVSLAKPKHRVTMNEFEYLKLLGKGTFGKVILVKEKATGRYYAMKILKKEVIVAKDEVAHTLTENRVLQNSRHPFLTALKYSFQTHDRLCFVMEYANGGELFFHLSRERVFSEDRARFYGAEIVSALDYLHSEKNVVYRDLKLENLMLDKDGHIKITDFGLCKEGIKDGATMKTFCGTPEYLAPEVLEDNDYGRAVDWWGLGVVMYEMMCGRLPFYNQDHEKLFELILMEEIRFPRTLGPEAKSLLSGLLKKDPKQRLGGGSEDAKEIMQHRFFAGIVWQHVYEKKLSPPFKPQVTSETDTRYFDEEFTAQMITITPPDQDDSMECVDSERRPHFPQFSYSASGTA

B1: HA-PHLPP2: HA-tagged full length human PHLPP2 expressed from pcDNA3HA vector; PHLPP2 protein is SEQ ID NO: 4 (protein, listed as Homo sapiens)
chain: MKRNGSRNCLNRRSRFGSRERDWLREDVKRGCVYLYGADTTTATTTTTTSSSSSSSSSSSDLHLVLCTVETPASEICAGEGRESLYLQLHGDLVRRLEPTERPLQIVYDYLSRLGFDDPVRIQEEATNPDLGCMIRFYGEKPCHMDRLDRILLSGIYNVRKGKTQLHKWAERLVVLCGTCLIVSSVKDCQTGKMHILPLVGGKIEEVKRRQYSLAFSSAGAQAQTYHVSFETLAEYQRWQRQASKVVSQRISTVDLSCYSLEEVPEHLFYSQDITYLNLRHNFMQLERPGGLDTLYKFSQLKGLNLSHNKLGLFPILLCEISTLTELNLSCNGFHDLPSQIGNLLNLQTLCLDGNFLTTLPEELGNLQQLSSLGISFNNFSQIPEVYEKLTMLDRVVMAGNCLEVLNLGVLNRMNHIKHVDLRMNHLKTMVIENLEGNKHITHVDLRDNRLTDLDLSSLCSLEQLHCGRNQLRELTLSGFSLRTLYASSNRLTAVNVYPVPSLLTFLDLSRNLLECVPDWACEAKKIEVLDVSYNLLTEVPVRILSSLSLRKLMLGHNHVQNLPTLVEHIPLEVLDLQHNALTRLPDTLFSKALNLRYLNASANSLESLPSACTGEESLSMLQLLYLTNNLLTDQCIPVLVGHLHLRILHLANNQLQTFPASKLNKLEQLEELNLSGNKLKTIPTTIANCKRLHTLVAHSNNISIFPEILQLPQIQFVDLSCNDLTEILIPEALPATLQDLDLTGNTNLVLEHKTLDIFSHITTLKIDQKPLPTTDSTVTSTFWSHGLAEMAGQRNKLCVSALAMDSFAEGVGAVYGMFDGDRNEELPRLLQCTMADVLLEEVQQSTNDTVFMANTFLVSHRKLGMAGQKLGSSALLCYIRPDTADPASSFSLTVANVGTCQAVLCRGGKPVPLSKVFSLEQDPEEAQRVKDQKAIITEDNKVNGVTCCTRMLGCTYLYPWILPKPHISSTPLTIQDELLILGNKALWEHLSYTEAVNAVRHVQDPLAAAKKLCTLAQSYGCQDNVGAMVVYLNIGEEGCTCEMNGLTLPGPVGFASTTTIKDAPKPATPSSSSGIASEFSSEMSTSEVSSEVGSTASDEHNAGGLDTALLPRPERRCSLHPTPTSGLFQRQPSSATFSSNQSDNGLDSDDDQPVEGVITNGSKVEVEVDIHCCRGRDLENSPPLIESSPTLCSEEHARGSCFGIRRQNSVNSGMLLPMSKDRMELQKSPSTSCLYGKKLSNGSIVPLEDSLNLIEVATEVPKRKTGYFAAPTQMEPEDQFVVPHDLEEEVKEQMKQHQDSRLEPEPHEEDRTEPPEEFDTAL
modifications: HA tag
Question: For B1, which “dephosphorylation of Ser 473” value (Akt [1]) is on record?
Answer: 60+4%

Question: And the “effect on Thr 308 phosphorylation” value (Akt [1])?
Answer: no significant effect

Question: And the “decrease in phosphorylation at Ser 473” value (Akt [2]; Bt-474 cell line)?
Answer: approximately 80%

Question: What about the “decrease in phosphorylation at Ser 473” value (Akt [2]; MDA-MB-231 cell line) of the same molecule?
Answer: ~70%

Question: What about the “effects on the phosphorylation of Thr 308” value (Akt [2]; overexpression in 293T and H157 cells) of the same molecule?
Answer: minimal effects

Question: What about the “reduction in phosphorylation at Ser 473” value (Akt [2]; overexpression in 293T cells) of the same molecule?
Answer: 76±3%

Question: And the “reduction in phosphorylation at Ser 473” value (Akt [2]; overexpression in H157 cells)?
Answer: 72+8%

Question: What about the “reduction in Ser 473 phosphorylation of immunoprecipitated Akt” value (Akt [3]; 293T cells overexpressing PHLPP2, compared to vector-transfected cells) of the same molecule?
Answer: 70%

Question: What about the “reduction in substrate phosphorylation (GSK-3 fusion protein)” value (Akt [3]; Akt from 293T cells overexpressing PHLPP2) of the same molecule?
Answer: 80%

Question: And the “apoptosis (sub-2N-DNA content)” value (Bt-474 cells)?
Answer: 15.8+0.6 relative units

Question: And the “relative sub-2N DNA (apoptosis)” value (H157 cells [4])?
Answer: 28±5%

Question: And the “apoptosis (sub-2N-DNA content)” value (MDA-MB-231 cells)?
Answer: 11.5+3.6 relative units

Question: What about the “increase in the G1/S ratio” value (293T cells) of the same molecule?
Answer: approximately 3 fold

Question: And the “increase in the G1/S ratio” value (H157 cells [5])?
Answer: approximately 2 fold

Question: What about the “effect on the phosphorylation of the hydrophobic motif in PKC, p90RSK, or p70S6K” value (PKC, p90RSK, or p70S6K) of the same molecule?
Answer: no significant effect

Question: What about the “phosphorylation of MEK 1/2 or ERK 1/2” value (MEK 1/2 or ERK 1/2) of the same molecule?
Answer: did not alter
